Values of other authors as cited in article PMC7096212.

How the values were obtained:
insulin (Homo sapiens) = insulin (Homo sapiens) (UniProt P01308)
[1] = biological target: DILP-5 (Drosophila melanogaster) (UniProt Q7KUD5)
IGF-1 (Homo sapiens) = IGF-1 (Homo sapiens) (UniProt P05019)
Sequence of UniProt P05019 (P05019 49-118): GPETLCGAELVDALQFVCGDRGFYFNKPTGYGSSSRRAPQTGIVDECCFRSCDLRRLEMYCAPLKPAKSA

Sequence of UniProt Q7KUD5 (Q7KUD5 23-50, chain 1 of 2): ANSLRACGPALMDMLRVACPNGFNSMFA
Sequence of UniProt Q7KUD5 (Q7KUD5 84-108, chain 2 of 2): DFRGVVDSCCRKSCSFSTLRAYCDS
Sequence of UniProt P01308 (P01308 90-110): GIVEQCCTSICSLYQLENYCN

IBP (from UniProt Q09024)
Kd (insulin (Homo sapiens)): 135 nM
Kd [1]: 2 nM
Kd (IGF-1 (Homo sapiens)): 13.6 nM
